{"source": "patent US20020165128A1", "about": "“Compositions and methods for proteolytically inactivating infectious agents using lactoferrin and related molecules” (priority 1998, published 2002)", "molecules": {"B1": {"name": "human milk lactoferrin: lactoferrin purified from human milk whey using anion exchange and molecular sieve chromatography (protein, UniProt P02788 20-710, looked up)", "Lactotransferrin": "GRRRSVQWCAVSQPEATKCFQWQRNMRKVRGPPVSCIKRDSPIQCIQAIAENRADAVTLDGGFIYEAGLAPYKLRPVAAEVYGTERQPRTHYYAVAVVKKGGSFQLNELQGLKSCHTGLRRTAGWNVPIGTLRPFLNWTGPPEPIEAAVARFFSASCVPGADKGQFPNLCRLCAGTGENKCAFSSQEPYFSYSGAFKCLRDGAGDVAFIRESTVFEDLSDEAERDEYELLCPDNTRKPVDKFKDCHLARVPSHAVVARSVNGKEDAIWNLLRQAQEKFGKDKSPKFQLFGSPSGQKDLLFKDSAIGFSRVPPRIDSGLYLGSGYFTAIQNLRKSEEEVAARRARVVWCAVGEQELRKCNQWSGLSEGSVTCSSASTTEDCIALVLKGEADAMSLDGGYVYTAGKCGLVPVLAENYKSQQSSDPDPNCVDRPVEGYLAVAVVRRSDTSLTWNSVKGKKSCHTAVDRTAGWNIPMGLLFNQTGSCKFDEYFSQSCAPGSDPRSNLCALCIGDEQGENKCVPNSNERYYGYTGAFRCLAENAGDVAFVKDVTVLQNTDGNNNEAWAKDLKLADFALLCLDGKRKPVTEARSCHLAMAPNHAVVSRMDKVERLKQVLLHQQAKFGRNGSDCPDKFCLFQSETKNLLFNDNTECLARLHGKTTYEKYLGPQYVAGITNLKKCSTSPLLEACEFLRK"}, "B2": {"name": "A. awamori recombinant lactoferrin: Aspergillus awamori recombinant human lactoferrin provided by Agennix Corporation (protein, UniProt P02788 20-710, looked up)", "Lactotransferrin": "B1 Lactotransferrin", "modifications": "expressed in Aspergillus awamori"}, "B3": {"name": "DMV Lactoferrin: commercially available bovine milk lactoferrin powder, DMV International Nutritionals, Lot 10022340 (protein, UniProt P24627 20-708, looked up)", "Lactotransferrin": "APRKNVRWCTISQPEWFKCRRWQWRMKKLGAPSITCVRRAFALECIRAIAEKKADAVTLDGGMVFEAGRDPYKLRPVAAEIYGTKESPQTHYYAVAVVKKGSNFQLDQLQGRKSCHTGLGRSAGWIIPMGILRPYLSWTESLEPLQGAVAKFFSASCVPCIDRQAYPNLCQLCKGEGENQCACSSREPYFGYSGAFKCLQDGAGDVAFVKETTVFENLPEKADRDQYELLCLNNSRAPVDAFKECHLAQVPSHAVVARSVDGKEDLIWKLLSKAQEKFGKNKSRSFQLFGSPPGQRDLLFKDSALGFLRIPSKVDSALYLGSRYLTTLKNLRETAEEVKARYTRVVWCAVGPEEQKKCQQWSQQSGQNVTCATASTTDDCIVLVLKGEADALNLDGGYIYTAGKCGLVPVLAENRKSSKHSSLDCVLRPTEGYLAVAVVKKANEGLTWNSLKDKKSCHTAVDRTAGWNIPMGLIVNQTGSCAFDEFFSQSCAPGADPKSRLCALCAGDDQGLDKCVPNSKEKYYGYTGAFRCLAEDVGDVAFVKNDTVWENTNGESTADWAKNLNREDFRLLCLDGTRKPVTEAQSCHLAVAPNHAVVSRSDRAAHVKQVLLHQQALFGKNGKNCPDKFCLFKSETKNLLFNDNTECLAKLGGRPTYEEYLGTEYVTAIANLKKCSTSPLLEACAFLTR"}}, "key": {"[1]": {"target": "T1, H. influenzae Hap adhesin (Haemophilus influenzae, UniProt P45387)", "T1 construct": "expressed in transfected cells; host or cells: H. influenzae strain DB117 carrying pJS106", "T1 sequence (P45387 26-1394)": "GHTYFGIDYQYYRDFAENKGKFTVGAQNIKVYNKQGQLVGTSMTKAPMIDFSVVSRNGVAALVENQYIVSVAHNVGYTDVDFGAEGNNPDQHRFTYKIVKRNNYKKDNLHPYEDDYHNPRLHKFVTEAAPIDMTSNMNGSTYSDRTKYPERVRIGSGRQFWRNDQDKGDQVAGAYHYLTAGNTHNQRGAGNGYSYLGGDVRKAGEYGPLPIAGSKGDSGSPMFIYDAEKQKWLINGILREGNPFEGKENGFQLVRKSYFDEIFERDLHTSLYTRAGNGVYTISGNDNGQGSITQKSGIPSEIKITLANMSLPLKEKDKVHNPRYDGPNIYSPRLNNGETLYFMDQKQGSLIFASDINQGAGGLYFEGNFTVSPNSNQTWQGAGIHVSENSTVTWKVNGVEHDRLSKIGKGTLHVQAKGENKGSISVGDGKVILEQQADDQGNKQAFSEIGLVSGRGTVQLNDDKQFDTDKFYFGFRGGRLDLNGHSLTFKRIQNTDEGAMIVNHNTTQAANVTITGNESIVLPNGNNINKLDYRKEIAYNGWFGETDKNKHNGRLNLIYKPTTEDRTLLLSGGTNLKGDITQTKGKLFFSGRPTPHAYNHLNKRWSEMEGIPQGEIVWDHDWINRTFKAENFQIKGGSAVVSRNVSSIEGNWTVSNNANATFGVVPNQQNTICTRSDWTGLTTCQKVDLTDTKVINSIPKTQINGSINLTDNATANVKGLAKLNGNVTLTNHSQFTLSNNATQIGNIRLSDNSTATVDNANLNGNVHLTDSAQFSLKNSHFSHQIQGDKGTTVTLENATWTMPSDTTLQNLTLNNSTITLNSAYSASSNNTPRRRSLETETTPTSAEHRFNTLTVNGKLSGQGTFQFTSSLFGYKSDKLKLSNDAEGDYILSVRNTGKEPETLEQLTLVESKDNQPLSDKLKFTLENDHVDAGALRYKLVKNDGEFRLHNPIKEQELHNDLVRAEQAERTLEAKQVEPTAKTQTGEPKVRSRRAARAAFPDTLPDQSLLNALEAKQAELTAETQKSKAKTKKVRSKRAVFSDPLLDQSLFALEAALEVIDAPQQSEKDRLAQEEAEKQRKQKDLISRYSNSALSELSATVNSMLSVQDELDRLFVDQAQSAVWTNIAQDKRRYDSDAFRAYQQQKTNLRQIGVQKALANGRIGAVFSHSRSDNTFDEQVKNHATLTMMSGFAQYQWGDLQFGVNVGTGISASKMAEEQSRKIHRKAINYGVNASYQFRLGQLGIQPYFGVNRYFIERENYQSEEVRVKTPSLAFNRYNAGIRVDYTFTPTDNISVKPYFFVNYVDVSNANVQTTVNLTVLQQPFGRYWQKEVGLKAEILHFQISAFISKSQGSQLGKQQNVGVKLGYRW", "format": "cell-based", "settings": "DB117 expressing wild-type Hap, 13 μM"}, "[2]": {"target": "T2, H. influenzae Hap adhesin (Haemophilus influenzae, UniProt P45387, S243A)", "T2 construct": "expressed in transfected cells; host or cells: H. influenzae strain DB117 carrying pJS106", "T2 sequence (P45387 26-1394 S243A)": "T1 sequence (P45387 26-1394) with S218A", "format": "cell-based"}, "[3]": {"test_system": "H. influenzae Hap adhesin", "format": "cell-based, Haemophilus influenzae"}, "[4]": {"target": "T3, 20 amino acid peptide Ala1007-Phe1026 of Hap (Haemophilus influenzae, UniProt P45387)", "T3 construct": "a 20 amino acid peptide corresponding to residues Ala1007-Phe1026 of Hap was synthesized; made in house; host or cells: chemical synthesis (f-moc), Protein Chemistry Laboratory at Tufts University", "assay": "Lactoferrin cleavage of synthetic Hap peptide, mass spectrometry", "format": "biochemical", "source_text": "Next, a 20 amino acid peptide corresponding to residues Ala1007-Phe1026 of Hap was synthesized and subjected to cleavage by milk lactoferrin."}, "[5]": {"target": "H. influenzae IgA1 protease precursor (Haemophilus influenzae, UniProt P44969, S288V)", "sequence (P44969 26-1694 S288V)": "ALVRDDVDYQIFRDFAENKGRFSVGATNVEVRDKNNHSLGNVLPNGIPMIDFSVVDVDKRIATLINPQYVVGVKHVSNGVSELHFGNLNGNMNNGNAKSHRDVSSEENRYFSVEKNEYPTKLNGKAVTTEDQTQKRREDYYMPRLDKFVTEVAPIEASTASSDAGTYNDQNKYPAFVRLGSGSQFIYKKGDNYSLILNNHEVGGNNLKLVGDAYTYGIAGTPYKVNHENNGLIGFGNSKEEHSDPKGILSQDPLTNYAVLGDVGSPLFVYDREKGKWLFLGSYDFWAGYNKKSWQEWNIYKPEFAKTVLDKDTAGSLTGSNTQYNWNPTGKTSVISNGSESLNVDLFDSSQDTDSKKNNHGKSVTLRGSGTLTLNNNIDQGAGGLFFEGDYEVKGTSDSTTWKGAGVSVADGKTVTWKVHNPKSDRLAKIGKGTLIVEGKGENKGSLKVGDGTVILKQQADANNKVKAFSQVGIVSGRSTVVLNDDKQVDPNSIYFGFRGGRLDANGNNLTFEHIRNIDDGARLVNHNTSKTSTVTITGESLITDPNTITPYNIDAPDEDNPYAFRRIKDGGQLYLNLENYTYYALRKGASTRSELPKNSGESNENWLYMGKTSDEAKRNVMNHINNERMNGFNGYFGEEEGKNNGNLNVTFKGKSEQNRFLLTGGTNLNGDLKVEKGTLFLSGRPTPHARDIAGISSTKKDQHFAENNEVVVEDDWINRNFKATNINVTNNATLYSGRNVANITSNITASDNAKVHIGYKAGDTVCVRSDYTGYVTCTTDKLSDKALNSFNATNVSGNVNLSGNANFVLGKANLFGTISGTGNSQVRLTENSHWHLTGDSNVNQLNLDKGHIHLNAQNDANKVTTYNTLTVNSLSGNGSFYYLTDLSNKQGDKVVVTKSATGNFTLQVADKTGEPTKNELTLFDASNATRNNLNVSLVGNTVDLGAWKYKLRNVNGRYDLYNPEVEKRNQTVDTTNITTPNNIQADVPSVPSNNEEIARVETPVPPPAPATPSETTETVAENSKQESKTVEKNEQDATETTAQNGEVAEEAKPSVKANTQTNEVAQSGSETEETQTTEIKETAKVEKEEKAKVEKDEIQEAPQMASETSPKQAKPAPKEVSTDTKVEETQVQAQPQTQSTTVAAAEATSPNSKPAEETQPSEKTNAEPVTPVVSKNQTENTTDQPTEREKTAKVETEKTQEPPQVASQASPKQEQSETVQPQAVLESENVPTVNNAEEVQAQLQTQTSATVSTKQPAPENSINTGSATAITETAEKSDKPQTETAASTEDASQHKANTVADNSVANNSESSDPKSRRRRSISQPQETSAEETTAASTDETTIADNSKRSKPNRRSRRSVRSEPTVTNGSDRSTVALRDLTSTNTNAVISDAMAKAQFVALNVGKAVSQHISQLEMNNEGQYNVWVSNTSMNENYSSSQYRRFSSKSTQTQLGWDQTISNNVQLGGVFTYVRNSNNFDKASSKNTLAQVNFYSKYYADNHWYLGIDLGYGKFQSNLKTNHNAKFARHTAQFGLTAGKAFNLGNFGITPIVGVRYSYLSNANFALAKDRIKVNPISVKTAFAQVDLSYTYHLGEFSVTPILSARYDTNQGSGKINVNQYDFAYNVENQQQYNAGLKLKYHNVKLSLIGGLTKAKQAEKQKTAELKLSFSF", "description": "The Rd strain was grown in brain heart-infusion broth supplemented with hemin (10 μg/ml) and nicotinamide adenine dinucleotide (2 μg/ml) to mid-log phase, and then harvested by centrifugation.\nAll samples were collected in sterile beakers; within 6 hours of collection they were centrifuged at 10,000×g for 20 min at 4 C to remove lipids and cells. The resulting whey was stored at −70 C and was prepared for use by thawing slowly, without further modifications. 2×10^9 H. influenzae cells were resuspended in 1 ml of the unmodified human milk whey and incubated at 37 C with gentle mixing. Samples were removed at intervals between 2 minutes and 1 hour. Whole cells and supernatants were examined by Western immunoblot using antisera directed against all domains of the preprotein.\nMid-log phase Rd3-13 bacteria were incubated in milk whey, and aliquots were removed at the times shown.\nThe antiserum used was anti-Rd3-13, which reacts with IgAp, IgAa, and IgAb."}, "[6]": {"target": "peptide fragments of IgA1 protease (Haemophilus influenzae, UniProt P44969)", "sequence (P44969 1338-1397)": "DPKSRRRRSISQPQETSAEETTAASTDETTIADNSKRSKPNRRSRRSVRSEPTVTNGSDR", "settings": "60 amino acid peptide ending at Arg1397; similar with the 80, 40 and 20 amino acid peptides", "description": "To further define the site of cleavage of the IgA1 protease precursor protein, N-Iga was resolved on an SDS-PAGE gel, then stained with Coomassie blue and excised. The excised band was subjected to Lys-C digestion, and mass spectrometry was performed. […] Subsequently, these peptides were treated with lactoferrin and then examined the reaction mixtures by mass spectrometry.\nDigests involving lactoferrin and synthetic peptides were extracted twice with 50 μL acetonitrile/2% TFA and then dried and resuspended in matrix solution for analysis by MALDI mass spectrometry."}, "[7]": {"settings": "cited from earlier work"}}, "note": "Positions count from the first letter of the chain named. Read-outs that look alike come from different tables or passages of the source.", "data": [{"molecule": "B1", "values": [{"measurement": "effect on Hap", "setting": "[1]", "value": "resulted in proteolysis, rather than extraction of Hap"}, {"measurement": "effect on Hap preprotein", "setting": "[2]; DB117 expressing HapS243A, 13 μM, whole cells", "value": "loss of the Hap preprotein and generation of a Hap C-terminal fragment"}, {"measurement": "proteolysis of Hap", "setting": "[3]; lowest concentration (87 nM), treatment of cells for 1 hour", "value": "proteolysis detectable but incomplete"}, {"measurement": "cleavage site in Hap peptide", "setting": "[4]", "value": "cleavage between Arg1019 and Arg1020 and between Arg1020 and Ala1021"}, {"measurement": "removal of IgA protease precursor", "setting": "[5]; Rd3-13, 30 min. incubation, bacterial cell pellet", "value": "small amount of precursor protein remaining"}, {"measurement": "removal of IgA protease precursor", "setting": "[5]; Rd3-13, after 15 minutes", "value": "a large amount of precursor has been proteolytically removed"}, {"measurement": "cleavage site in IgA1 protease peptides", "setting": "[6]", "value": "cleavage between Arg1382 and Arg1383 and between Arg1383 and Ser1384"}]}, {"molecule": "B2", "values": [{"measurement": "proteolysis of Hap", "setting": "[2]; DB117/HapS243A, 430 nM", "value": "partial proteolysis of Hap"}, {"measurement": "Hap degradation products", "setting": "[3]; DB117 derivatives, 13 μM", "value": "generated two products"}]}, {"molecule": "B3", "values": [{"measurement": "removal of IgA protease precursor", "setting": "[5]; Rd3-13, after 15 minutes", "value": "virtually no precursor was removed"}, {"measurement": "removal of IgA protease precursor", "setting": "[5]; Rd3-13, after two hours", "value": "only a trace of the precursor was removed"}, {"measurement": "shelf life", "setting": "[7]; original sealed packaging, stored below 20° C., max 75% relative humidity", "value": "at least three years"}, {"measurement": "Iron binding: spectrophotometric method at 465 nm (on solids)", "setting": "[7]; typical analysis", "value": 76, "unit": "%"}, {"measurement": "pH (2%, 20° C.)", "setting": "[7]; typical analysis", "value": 5.7}]}]}
